{
  "source": "patent US20100285583A1",
  "about": "“COMPOUNDS AND METHODS FOR INHIBITING PLATELET AGGREGATION” (priority 2009, published 2010)",
  "molecules": {"B1": {"name": "N-PTB: N-terminal phosphotyrosine binding domain (residues 1-241) of human Disabled-2 (Dab2), expressed as GST-fusion in E. coli (protein)", "chain": "MSNEVETSATNGQPDQQAAPKAPSKKEKKKGPEKTDEYLLARFKGDGVKYKAKLIGIDDVPDARGDKMSQDSMMKLKGMAARGRSQGQHKQRIWVNISLSGIKIIDEKTGVIEHEHPVNKISFIARDVTDNRAFGYVCGGEGQHQFFAIKTGQQAEPLVVDLKDLFQVIYNVKKKEEEKKKIEEASKAVENGSEALMILDDQTNKLKSGVDQMDLFGDMSTPPDLNSPTESKDILLVDLNS"}},
  "key": {"[1]": {"assay": "Protein-lipid overlay assay, sulfatides", "format": "binding", "details": "Sphingolipid strips, GST-Dab2 PTB", "protocol": "Membrane strips (SphingoStrips™) spotted with 100 pmol of sphingolipids were purchased from Echelon Research Laboratories. Membrane strips were incubated with 0.1 μg/ml of the Dab2 PTB domain or its mutants in 20 mM Tris-HCl (pH 8.0), 150 mM NaCl, 0.1% Tween-20 and 3% fatty acid-free bovine serum albumin overnight at 4° C. Following four washes with the same buffer, proteins bound to the membrane strips were probed with rabbit anti-GST antibody (Santa Cruz Biotech). Donkey anti rabbit-horse radish peroxidase (HRP) antibody was obtained from GE Healthcare. Detection was carried out using ECL reagent (Pierce). Also, lipid strips were prepared by spotting 1 μl of either sulfatides or PtdIns(4,5)P2 dissolved in chloroform:methanol:water (1:2:0.8 and 65:35:8, respectively) onto Hybond-C extra membranes (GE Healthcare) and protein binding was monitored as described above. Bound protein was quantified using the AlphaImager program and binding was calculated as a percentage of GST-PTB binding to 100 pmoles of spotted lipid."}, "[2]": {"test_system": "platelet surface P-selectin", "assay": "Flow cytometry, platelet surface P-selectin", "format": "cell-based, human", "details": "for inhibition of sulfatide induced activation (surface P-selectin): ADP 30 μM, sulfatide liposomes 50 μg/mL", "protocol": "(§1) Washed platelets (2.5×10^5 platelets/μL) were kept unactivated or either activated with ADP (30 μM) or TRAP (10 μM). Both unactivated and activated platelets were incubated for 10 min at 23° C. with liposomes (50 μg/mL) either without (liposomes control) or with sulfatides, and N-PTB constructs (1 μM). Reactions were fixed with 1% formalin and incubated with PE- labeled CD62p anti-P-selectin (BioLegend) or FITC-labeled PAC-1 anti-integrin receptor (BD Transduction) antibodies. Bound antibodies were quantified using a FacsAria flow cytometer.\nOnce present, P-selectin is able to interact with sulfatides which triggers an internal phosphorylation pathway thought to be mediated by p38 (FIG. 12A) (Merten 2005). This cascade results in further de-granulation and an increase in surface P-selectin (Merten 2005). To monitor the de-granulation of platelets, two activation markers were evaluated using fluorescent antibodies specific for P-selectin and the αIIbβ3 integrin. Marker surface expression was quantified using fluorescence-activated cell sorting (FACS) analysis, and measuring the median fluorescent signal of 10,000 platelets. The median signal was used as our reference to quantify the data set as median values are less affected by the wide range of platelet signals and is therefore more representative of the population. When platelets were stimulated with ADP (30 μM) they show increases in both surface P-selecting and αIIbβ3 integrin expression. In the presence of sulfatides (50 μg/mL), in the form of enriched liposomes, the levels of P-selectin and αIIbβ3 integrin were further increased to about 20-25 fold their un-stimulated levels (FIG. 12B). […] The levels of P-selectin and αIIbβ3 integrin were measured among several different individuals and the levels varied greatly between them; however; consistently, sulfatides induced a ˜20 fold increase over un-stimulated platelets and a ˜10 fold increase over ADP stimulated platelets."}, "[3]": {"test_system": "platelet surface αIIbβ3 integrin", "assay": "Flow cytometry, platelet surface αIIbβ3 integrin", "format": "cell-based, human", "details": "ADP 30 μM, sulfatide liposomes 50 μg/mL", "protocol": "as §1\nOnce present, P-selectin is able to interact with sulfatides which triggers an internal phosphorylation pathway thought to be mediated by p38 (FIG. 12A) (Merten 2005). This cascade results in further de-granulation and an increase in surface P-selectin (Merten 2005). To monitor the de-granulation of platelets, two activation markers were evaluated using fluorescent antibodies specific for P-selectin and the αIIbβ3 integrin. Marker surface expression was quantified using fluorescence-activated cell sorting (FACS) analysis, and measuring the median fluorescent signal of 10,000 platelets. The median signal was used as our reference to quantify the data set as median values are less affected by the wide range of platelet signals and is therefore more representative of the population. […]"}},
  "data": [
    {"molecule": "B1", "values": [
      {"measurement": "binding to sphingolipids", "setting": "[1]", "value": "preferentially bound to sulfatides"},
      {"measurement": "inhibition of sulfatide induced activation (surface P-selectin)", "setting": "[2]", "value": "remained at ADP stimulated levels"},
      {"measurement": "inhibition of sulfatide induced activation (surface P-selectin)", "setting": "[2]; listed as N-PTB^4M", "value": "no inhibition of sulfatide induced activation"},
      {"measurement": "IC50", "setting": "[2]; titration 1 nM-1 μM, ADP stimulated platelets, logarithmic curve fit, read-out: IC50, inhibition of sulfatide induced P-selectin marker expression", "value": 121, "unit": "nM"},
      {"measurement": "inhibition of sulfatide induced expression of αIIbβ3 integrin", "setting": "[3]", "value": "inhibition of sulfatide induced expression"},
      {"measurement": "inhibition of sulfatide induced expression of αIIbβ3 integrin", "setting": "[3]; listed as N-PTB^4M", "value": "no inhibition"}
    ]}
  ]
}
